From patent US20030236190A1 (published 2003)
No end group written: not given here.

B1: D815-12aa-RP9 (peptide)
peptide: WLDQERAWLWCEISGRGCLSGGSGGSGGSGGSGSLDESFYDWFERQLGKK
modifications: not fully specified (bridges); cysteine pairing not given here
notes: Site 2-Site 1 dimer peptide, recombinant; also called D815-RP9 (12 aa linker); D815-12-RP9
B2: S415 (peptide)
chain: ESFYDWFERQLGK
modifications: not fully specified (residue 13, C-terminus); also: dimer, two chains joined C-terminus to C-terminus through linker 23

Each binder was assayed against human IGF-1R on FDCP-2 cells (human, UniProt P08069 31-1367) (assay: cell-based or functional assay).

Question: GIISQSCPESFYDWFAGQVSDPWWCW (Recombinant form) [recombinant peptide surrogate G33 (rG33)] was tested. Which “ED50 Growth” value did it give?
Answer: 500 nM

Question: And the Ki/ED50?
Answer: 2.9

Question: And the “Max Action” value?
Answer: > 50

Question: With B1 as the binder, how does the “ED50 Growth” value read?
Answer: 10000 nM

Question: And the Ki/ED50?
Answer: 0.0003

Question: What about the “Max Action” value of the same binder?
Answer: 100

Question: GSLDESFYDWFERQLG (also called RP9 minus terminal lysines) [RP9] was tested. Which “IC50 Antag.” value did it give?
Answer: 900 nM

Question: What about the Ki/ED50 of the same binder?
Answer: 0.5

Question: And the “Max Action” value?
Answer: < 10%

These binders were tested against T1, recombinant human IGF-1R (rhIGF-1R) (human, UniProt P08069 31-935) (assay: TR-FRET competition with b-20E2 for rhIGF-1R).
T1 construct: extracellular domain; Coated on plates in the TRF assay and europium-labelled (LANCE) in the TR-FRET assays; also called rhIGE-1R; Eu3+-rhIGF-1R

Question: How did the IC50 turn out when PPWGARFYDAIEQLVFDNL [RP4] was run?
Answer: 8100 nM

Question: For SQAGSAFYAWFDQVLRTV [RP15], which IC50 is on record?
Answer: 706 nM

Question: How did the IC50 turn out when DYKDFYDAIDQLVRGSARAGGTRD (also called 20E2 (D118)) [20E2] was run?
Answer: 100 nM

Question: For CWARPCGDAANFYDWFVQQAS (also called C1 (D112)) [C1], which IC50 is on record?
Answer: 10 nM

Question: GIISQSCPESFYDWFAGQVSDPWWCW [G33] was tested. Which IC50 did it give?
Answer: 178 nM

Question: How did the IC50 turn out when VMDARDDPFYHKLSELVT [RP16] was run?
Answer: 961 nM

Question: For GSLDESFYDWFERQLG (also called RP9 minus terminal lysines) [RP9], which IC50 is on record?
Answer: 33 nM

These binders were tested against T1, recombinant human IGF-1R (rhIGF-1R) (assay: column 'nM Ki app Kd' of Table 15 (IGF-1R summary); values match the TRF competition with b-rhIGF-1 on rhIGF-1R of Table 20).
Protocol: (§1) The plates were incubated for 2 hr at RT.

Question: How did the Ki turn out when GIISQSCPESFYDWFAGQVSDPWWCW (Recombinant form) [recombinant peptide surrogate G33 (rG33)] was run?
Answer: 1450 nM

Question: How did the Ki turn out when B1 was run?
Answer: 3 nM

Question: With GSLDESFYDWFERQLG (also called RP9 minus terminal lysines) [RP9] as the binder, how does the Ki read?
Answer: 417 nM

The binders below were run against T2, soluble human insulin receptor-immunoglobulin heavy chain chimera (sIR-Fc) (human, UniProt P06213 28-956, limits assumed) (assay: fluorescence polarization competition with FITC-RP9 for sIR-Fc).
T2 construct: extracellular domain; also called sIR-Ec; not shown: immunoglobulin heavy chain constant domains

Question: Which IC50 does the source give for PPWGARFYDAIEQLVFDNL [RP4] here?
Answer: 17 nM

Question: SQAGSAFYAWFDQVLRTV [RP15] was tested. Which IC50 did it give?
Answer: 28 nM

Question: Which IC50 does the source give for DYKDFYDAIDQLVRGSARAGGTRD (also called 20E2 (D118)) [20E2] here?
Answer: 51 nM

Question: GIISQSCPESFYDWFAGQVSDPWWCW [G33] was tested. Which IC50 did it give?
Answer: 139 nM

Question: With GGTVWPGYEWLRNA [E8] as the binder, how does the IC50 read?
Answer: 206 nM

Question: Which IC50 does the source give for FHENFYDWFVQRVSKK (also called H2C (D117)) [H2C] here?
Answer: 66 nM

Question: How did the IC50 turn out when VMDARDDPFYHKLSELVT [RP16] was run?
Answer: 6400 nM

Question: GSLDESFYDWFERQLG (also called RP9 minus terminal lysines) [RP9] was tested. Which IC50 did it give?
Answer: 24 nM

Each binder was assayed against T1, recombinant human IGF-1R (rhIGF-1R) (assay: TR-FRET competition with b-20E2 for Eu3+-rhIGF-1R).

Question: How did the IC50 turn out when DYKDFYDAIDQLVRGSARAGGTRD (also called 20E2 (D118)) [20E2] was run?
Answer: 104 nM

Question: Which IC50 does the source give for LDALDRLMRYFEERPSL [S173] here?
Answer: 6290 nM

Question: How did the IC50 turn out when CWARPCGDAANFYDWFVQQAS (also called C1 (D112)) [C1] was run?
Answer: 0.88 nM

Question: For SAKNFYDWFVKK [A6], which IC50 is on record?
Answer: 31000 nM

Question: Which IC50 does the source give for FHENFYDWFVQRVSKK (also called H2C (D117)) [H2C] here?
Answer: 460 nM

Question: WLEQERAWIWCEIQGSGCRA (not fully specified (bridges); cysteine pairing not given here) [D8B12] was tested. Which IC50 did it give?
Answer: 11300 nM

Question: Which IC50 does the source give for GSLDESFYDWFERQLG (also called RP9 minus terminal lysines) [RP9] here?
Answer: 39.3 nM

What follows are binders tested against T1, recombinant human IGF-1R (rhIGF-1R) (assay: heterogeneous TRF (DELFIA) competition with b-rhIGF-1 for plate-coated rhIGF-1R).
Protocol: as §1

Question: GIISQSCPESFYDWFAGQVSDPWWCW (Recombinant form) [recombinant peptide surrogate G33 (rG33)] was tested. Which IC50 did it give?
Answer: 1450 nM

Question: With B1 as the binder, how does the IC50 read?
Answer: 3.22 nM

Question: Which IC50 does the source give for GSLDESFYDWFERQLG (also called RP9 minus terminal lysines) [RP9] here?
Answer: 417 nM

Each binder was assayed against T3, Human insulin receptor (HIR), purified from transfected cells after solubilization with Triton X-100 (human, UniProt P06213 28-1382, limits assumed) (assay: competition with 125I-insulin for solubilised HIR, PEG precipitation; Kd calculated from the competition curve).
T3 construct: Detergent-solubilised receptor

Question: B2 was tested. Which Kd did it give?
Answer: 100 nM

The binders below were run against T1, recombinant human IGF-1R (rhIGF-1R) (assay: ratio of the IC50 at rhIGF-1R (TR-FRET) to the IC50 at sIR-Fc (FP); higher values indicate higher affinity for IR than IGF-1R).

Question: Which “Binding Ratio IGF-1R/IR” value does the source give for PPWGARFYDAIEQLVFDNL [RP4] here?
Answer: 476

Question: SQAGSAFYAWFDQVLRTV [RP15] was tested. Which “Binding Ratio IGF-1R/IR” value did it give?
Answer: 25

Question: DYKDFYDAIDQLVRGSARAGGTRD (also called 20E2 (D118)) [20E2] was tested. Which “Binding Ratio IGF-1R/IR” value did it give?
Answer: 1.9

Question: How did the “Binding Ratio IGF-1R/IR” value turn out when CWARPCGDAANFYDWFVQQAS (also called C1 (D112)) [C1] was run?
Answer: 0.19

Question: Which “Binding Ratio IGF-1R/IR” value does the source give for GIISQSCPESFYDWFAGQVSDPWWCW [G33] here?
Answer: 1.3

Question: For VMDARDDPFYHKLSELVT [RP16], which “Binding Ratio IGF-1R/IR” value is on record?
Answer: 0.15

Question: For GSLDESFYDWFERQLG (also called RP9 minus terminal lysines) [RP9], which “Binding Ratio IGF-1R/IR” value is on record?
Answer: 1.4
